Substitutions are numbered along the chain they refer to. Blank lines part the entries; values can stand above or below the binder they belong to.
Experiments:
[1] = target: T1, Human soluble uPAR (residues 1-277) (human, UniProt Q03405 23-299); experiment: equilibrium SPR (Biacore 1000), IgG immobilized on a CM5 chip, soluble uPAR as analyte, one site binding model
T1 construct: also called soluble human uPAR

[2] = target: T1, Human soluble uPAR (residues 1-277); experiment: equilibrium SPR (Biacore), IgG immobilized, soluble uPAR as analyte (FIG. 4)
[3] = target: T2, Membrane-bound human uPAR on cells (human, UniProt Q03405 23-305); experiment: in vivo imaging, 2 nmol labelled IgG, 48 hours after injection
T2 construct: whole, on cells; Also used for endogenous uPAR in H1299 lysates (co-immunoprecipitation) and in tumor xenografts and sections; also called cell surface uPAR; CD87
T2 sequence (Q03405 23-305): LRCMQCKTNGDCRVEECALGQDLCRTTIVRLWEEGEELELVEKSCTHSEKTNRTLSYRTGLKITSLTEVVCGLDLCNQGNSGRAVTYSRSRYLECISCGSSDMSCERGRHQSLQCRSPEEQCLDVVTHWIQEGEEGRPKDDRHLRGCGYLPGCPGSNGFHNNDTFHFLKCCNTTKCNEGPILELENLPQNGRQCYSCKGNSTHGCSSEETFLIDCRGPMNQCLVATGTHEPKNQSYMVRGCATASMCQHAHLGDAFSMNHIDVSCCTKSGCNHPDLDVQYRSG

T1 sequence (Q03405 23-299): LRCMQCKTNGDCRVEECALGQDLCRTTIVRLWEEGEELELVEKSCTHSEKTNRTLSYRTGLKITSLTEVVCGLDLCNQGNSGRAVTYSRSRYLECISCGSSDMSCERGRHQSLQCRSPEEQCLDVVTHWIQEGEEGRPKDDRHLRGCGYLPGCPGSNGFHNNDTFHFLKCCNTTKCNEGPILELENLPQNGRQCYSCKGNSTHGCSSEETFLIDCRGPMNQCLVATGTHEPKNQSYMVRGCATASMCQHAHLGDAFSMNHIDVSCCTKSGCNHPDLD

- Kd [1]: 23.8 nM
B1: 1A8 IgG (antibody, V domains shown)
VH: QVQLQQSGPGLVKPSQTLSLTCAISGDSVSSNSAAWNWIRQSPSRGLEWLGRTYYRSKWYNDYAVSVKSRITINPDTSKNQFSLQLNSVTPEDTAVYYCTRDPGGALDDSFDIWGQGTMVTVSS
VL: DVVMTQSPASLSVSVGDRVTLTCQASQVINNHLNWYQQQPGKAPKLLVYDASNLETGVPSRFSGSGSGTDFTFTISGLQPEDIATYYCQQSDNLPLTFGGGTKLEIKR
notes: also called 1A8 IgG1; not shown: human IgG1 constant region of vector pTT5-SP-H1

- Kd [1]: 40.5 nM
- Kd [2]: ~40.5 nM
B2: 2G10 IgG (antibody, V domains shown)
VH: B1 VH with T72I, T100A, A106P
VL: DVVMTQSPLSLPVTPGEPASISCRSSQSLLRSNGYNYLDWYLQKPGQSPQLLIYLGSIRASGVPDRFSGSGSGTDFTLRISRVEAEDVGVYYCMQALQTPFTFGQGTKLEIKR
modifications: Alexa Fluor 680 (about 15 dyes per IgG) or DOTA-111In in the imaging experiments. It is unlabelled in SPR and flow cytometry.
notes: Used with an Alexa Fluor 680 or 111In-DOTA label in the in vivo imaging; also called 2G10 IgG1; DOTA-2G10 IgG

- binding result [3]: binds
B3: 3C6 IgG (antibody, V domains shown)
VH: QVQLQQWGAGLLKPSETLSLTCAVYGGSFSGYYWSWIRQPPGKGLEWIGEINHSGSTNYNPSLKSRVTISVDTSKNQFSLKLSSVTAADTAVYYCARGRRFGDFDYWGQGTLVTVSS
VL: QPVLTQPPSVSVAPGKTARITCGGNNIGSKSVHWYQQKPGQAPVLVVYDDSDRPPGIPERFSGSNSGNTATLTISRVEAGDEADYYCQVWDSSSDHSPFGTGTKVTVLG
notes: not shown: IgG constant region; the making of 3C6 IgG is not described

- Kd [1]: 9.2 nM
B4: 2E9 IgG (antibody, V domains shown)
VH: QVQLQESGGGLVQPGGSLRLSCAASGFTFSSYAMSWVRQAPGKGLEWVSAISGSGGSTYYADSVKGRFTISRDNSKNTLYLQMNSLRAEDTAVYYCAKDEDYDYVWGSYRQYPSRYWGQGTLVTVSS
VL: QSVLTQPPSVSVSPGQTASITCSGDNLGYKYASWYQQKPGQSPVLIIYQDKKRPSGIPERFSGSNSGNTATLTISGTQAMDEADYYCQAWDSSTSVVFGGGTKLTVLG
notes: also called 2E9 IgG1; not shown: human IgG1 constant region of vector pTT5-SP-H1

— patent US20130052128A1 (University of California, published 2013)
